In patent publication US20240239891A1 (Stanford University, published 2024):

T1: extracellular domain (ECD) of human GRAIL (RNF128) (human, UniProt Q8TEB7 39-207, limits assumed)
T1 construct: extracellular domain; also called GRAIL ECD
T1 sequence (looked up): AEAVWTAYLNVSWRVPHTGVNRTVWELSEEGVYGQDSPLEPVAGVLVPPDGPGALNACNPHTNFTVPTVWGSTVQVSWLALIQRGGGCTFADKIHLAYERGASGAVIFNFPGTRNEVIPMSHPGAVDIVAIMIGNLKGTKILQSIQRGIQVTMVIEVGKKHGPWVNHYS

T2: mRNF43 ECD
T2 construct: The mouse half of m18, which leaves the species open; also called extracellular domain of mouse RNF43
T2 chain: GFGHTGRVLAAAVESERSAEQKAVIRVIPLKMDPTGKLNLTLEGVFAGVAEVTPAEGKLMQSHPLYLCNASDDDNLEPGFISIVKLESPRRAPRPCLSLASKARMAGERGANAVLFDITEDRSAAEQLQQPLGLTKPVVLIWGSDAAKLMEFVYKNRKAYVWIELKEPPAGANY


Legend:
[1] = biological target: T3, extracellular domain (ECD) of human GODZILLA (RNF167) (human, UniProt Q9H6Y7 25-173, limits assumed); experiment: SPR (Biacore), titration at equilibrium, nanobody on ECD
T3 construct: extracellular domain; also called GODZILLA ECD

[2] = biological target: T1, extracellular domain (ECD) of human …; experiment: SPR (Biacore), ligand hRNF128 ECD (GRAIL), analyte GODZILLA-A5 [CONT. 3]
[3] = biological target: GODZILLA (RNF167) on Ba/F3 cells (mouse, UniProt Q91XF4); experiment: flow cytometry, surface staining of Ba/F3 cells (mouse by legend paragraph 54, sheet prints HUMAN) with streptavidin-APC tetramerized nanobody, titration up to 200 nM; control BIOTIN
[4] = biological target: T4, extracellular domain (ECD) of human or mouse RNF43 (human or mouse); experiment: SPR (Biacore), nanobody on ECD
T4 construct: extracellular domain; also called RNF43 ECD

mRNF43 ECD = biological target: T2, mRNF43 ECD; experiment: SPR (Biacore), ligand mRNF43 ECD, analyte RNF43 -A4

| Kd [1] | binding result [3] | Kd [4] | Binder | binding result [2] | binding result (mRNF43 ECD) |
| --- | --- | --- | --- | --- | --- |
| 3 nM | binds | – | GODZILLA (RNF167) VHH of SEQ ID NO: 9 (VHH, also called A5; GODZILLA-A5) VHH: QVQLQESGGGLVQAGGSLRLSCAASGSIFRLWYMGWYRQAPGKEREFVASIGIGATTNYADSVKGRFTISRDNAKNTVYLQMNSLKPEDTAVYYCAVFGWAYSGYHDDFLYWGQGTQVTVSS | no binding (tested: 1000 (unit not printed)) | – |
| – | – | 315 nM | RNF43 VHH of SEQ ID NO: 10 (VHH, also called RNF43 nanobody) VHH: QVQLQESGGGLVQAGGSLRLSCAASGTIFDDLLMGWYRQAPGKERELVAAIGAGATTNYADSVKGRFTISRDNAKNTVYLQMNSLKPEDTAVYYCAAWWLYYKGDWALYLYWGQGTQVTVSS | – | no binding (tested: highest concentration not legible) |
